Assay: soluble on expression in E. coli; label from the status in PepcDB or PDB records

| Sequence | soluble on expression in E. coli |
| --- | --- |
| AAIAEKDLGNAAYKQKDFEKAHVHYDKAIELDPSNITFYNNKAAVYFEEKKFAECVQFCEKAVEVGRETRADYKLIAKAMSRAGNAFQKQNDLSLAVQWFHRSLSEFRDPELVKKVKELEKQLKAAERLAYINPELAQEEKNKGNEYFKKGDYPTAMRHYNEAVKRDPENAILYSNRAACLTKLMEFQRALDDCDTCIRLDSKFIKGYIRKAACLVAMREWSKAQRAYEDALQVDPSNEEAREGVRNCLRSNDEDPEKAKERSLADPEVQEILRDPGMRMILEQMSNDPGAVREHLKNPEIFQKLMKLRD | not soluble |
| AAVEDNHLLIKAVQNEDVDLVQQLLEGGANVNFQEEEGGWTPLHNAVQMSREDIVELLLRHGADPVLRKKNGATPFLLAAIAGSVKLLKLFLSKGADVNECDFYGFTAFMEAAVYGKVKALKFLYKRGANVNLRRKTKEDQERLRKGGATALMDAAEKGHVEVLKILLDEMGADVNACDNMGRNALIHALLSSDDSDVEAITHLLLDHGADVNVRGERGKTPLILAVEKKHLGLVQRLLEQEHIEINDTDSDGKTALLLAVELKLKKIAELLCKRGASTDCGDLV | soluble |
| ADVILFPSKNGAVTFTHKRHSEFVRECRSCHEKTPGKIRNFGKDYAHKTCKGCHEVRGAGPTKCKLCHTG | soluble |
| AEAKSKLTVALGKDIAGTPVVGDLAKMPHLLVAGMTGSGKSVGVNGMIMSMLFKATPDEVRFIMIDPKMLELSIYDGIPHLLCPVVTDMREAGQALNWCVAEMEKRYRLLSHAGVRNLEGFNQKVEAAKAAGKPLLNPFSLNPDEPEPLEKLPLIVVVIDELADLMMTERKAVEQQIARLAQKARAAGIHMIVATQRP | not soluble |
| AEPESCGTVRFSDVGWTDITATTATATTILEALGYETDVKVLSVPVTYTSLKNKDIDVFLGNWMPTMEADIAPYREDKSVETVRENLAGAKYTLATNAKGAELGIKDFKDIAAHKDELDGKIYGIEPGNDGNRLIIDMVEKGTFDLKGFEVVESSEQGMLAQVARAEKSGDPIVFLGWEPHPMNANFKLTYLSGGDDVFGPNYGGATVHTNVRAGYTTECPNVDKLLQNLSFSLQMENEIMGKILNDGEDPEKAAAAWLKDNPQSIEPWLSGVATKDGGDGLAAVKAALGLEHHHHHH | soluble |
| AEQDMYLLRQSFGKHKTVSAGVPWFSTLFGRDSLITASQTLMLNSQIAKETLILLAKYQGKIDDEWREEEPGKILHELRLGEMARCQEIPHTPYYGTVDATPLWLMLYAEHYAWTHDQELLELLWPNALAAMDWIDRNTKQTSYLSYFRKSKRGLANQGWKDSGDCIVNHKGELANGPIALCEVQAYVYAAKTRLAEIARMKKRLDLADRWLEEARSLKVRFNRDFWVEDQDFCALALDGDGKPVDSITSNPGHCLHLGLFTHERAYSVAERLRAPDMFNGWGIRTLSSLSPAYNPMGYHIGSVWPHDNALIAMGLRSLGLIDQALELFQGLFDMTSQQPYERPPELFCGYERNGDNAPVQYPVACTPQAWATGSIFQ | not soluble |
| AERPTLPIPDLLTTDARNRIQLTIGAGQSTFGGKTATTWGYNGNLLGPAVKLQRGKAVTVDIYNQLTEETTLHWHGLEVPGEVDGGPQGIIPPGGKRSVTLNVDQPAATCWFHPHQHGKTGRQVAMGLAGLVVIEDDEILKLMLPKQWGIDDVPVIVQDKKFSADGQIDYQLDVMTAAVGWFGDTLLTNGAIYPQHAAPRGWLRLRLLNGCNARSLNFATSDNRPLYVIASDGGLLPEPVKVSELPVLMGERFEVLVEVNDNKPFDLVTLPVSQMGMAIAPFDKPHPVMRIQPIAISASGALPDTLSSLPALPSLEGLTVRKLQLSMDGGANKINGQAFDMNKPMFAAAKGQYERWVISGVGDMMLHPFHIHGTQFRILSENGKPPAAHRAGWKDTVKVEGNVSEVLVKFNHDAPKEHAYMAHCHLLEHEDTGMMLGFTVGHHHHH | soluble |
| AEVLLGSSDGGLAFVPSDLSIASGEKITFKNNAGFPHNDLFDKKEVPAGVDVTKISMPEEDLLNAPGEEYSVTLTEKGTYKFYCAPHAGAGMVGKVTVN | soluble |
| AFVKMVGHHVAFLEADVLQAERDHGAFPQALRRWLGSAGLPSFRNVSGVQWHNPSSLQPPPPGFK | not soluble |
| AGIVNQVTAKNITADLQGGYPWSESNPLLLSDVSVDVLGGQIIMKQLRMPQHDPALLRVQNISSSELISAINPKQFAMSGPVSGALPLWLNNEKWIIKDGWLTNPGPMTLRIDKDTADAVVKDNVTAGSAINWLRYMEITHSWTKINVDNLGVLTMQAAITGKSRVDGKTAIVNLNYTHEENVFTLWRSLRFGDNLQAWLEQNTALPQPP | not soluble |
| AGKPVLHYFNARGRMECIRWLLAAAGVEFEEKFIQSPEDLEKLKKDGNLMFDQVPMVEIDGMKLAQTRAILNYIATKYDLYGKDMKERALIDMYSEGILDLTEMIGQLVLCPPDQREAKTALAKDRTKNRYLPAFEKVLKSHGQDYLVGNRLTRVDIHLLEVLLYVEEFDASLLTPFPLLKAFKSRISSLPNVKKFLQPGSQRKPPMDAKQIQEARKAFKIQ | soluble |
| AGMSLTQVSGPVYVVEDNYYVQENSMVYFGAKGVTVVGATWTPDTARELHKLIKRVSRKPVLEVINTNYHTDRAGGNAYWKSIGAKVVSTRQTRDLMKSDWAEIVAFTRKGLPEYPDLPLVLPNVVHDGDFTLQEGKVRAFYAGPAHTPDGIFVYFPDEQVLYGGCILKEKLGNLSFADVKAYPQTLERLKAMKLPIKTVIGGHDSPLHGPELIDHYEALIKAAPQSS | soluble |
| AGQKVMITKMITDSVANPQMKQAFEQRLAKASTEDALNDIKRDIIRSAI | soluble |
| AHHHHHHGSAGIEVQILEKKEDSIKFVLKGVHVSFANALRRTILGEVPTFAVDEVEFYENDSALFDEIIAHRLAMIPLTTPVDRFELDALELDDYTVTLSLEAEGPGIVYSGDLKSDDPDVKPVNPNIPIVKLAEGQRLVFNAYAKLGRGKDHAKWQPGFVYYKYYTIVHISKSIPEWKELKKLAKKRGLPVEETEEEVLVTTIKPFYIPKDFEEYEGKEIWEEIVPNTYIFTVETNGELPVEEIVSIALKILMRKADRFISELQKLTS | soluble |
| AHHHHHHGSAQLAGQPILILPEGTQRYVGRDAQRMNILAARIVAETIRTTLGPKGMDKMLVDSLGDIVITNDGATILDEMDIQHPAAKMMVEVAKTQDKEAGDGTTTAVVIAGELLRKAEELLDQNIHPSIIIKGYTLAAQKAQEILENIAKEVKPDDEEILLKAAMTSITGKAAEEEREYLAKLAVEAVKLVAEKEDGKYKVDIDNIKLEKKEGGSVRDTQLIRGVVIDKEVVHPGMPKRVEKAKIALINDALEVKETETDAEIRITSPEQLQAFLEQEERMLREMVEKIKEVGANVVFVQKGIDDLAQHYLAKYGIMAVRRVKKSDMEKLAKATGAKIVTNIRDLTPEDLGYAELVEERKVAGESMIFVEGCQNPKAVTILIRGGTEHVVDEVERALEDAIKVVKDILEDGKILAGGGAPEIELAIRLDEYAKEVGGKEQLAIEAFAEALKVIPRTLAENAGLDPIETLVKVIAAHKEKGPTIGVDVYEGEPADMLERGVIEPLRVKKQAIKSASEAAIMILRIDDVIAASKLEKEKEKEGEKGGGSEDFSSDLD | not soluble |
| AHHHHHHGSEEKIILFVCVKNSARSQMAEAFFNYYNDDPRFKAMSAGTEPADDIDPLAKKVMEEIGISLEGQKPKLYTPEMADKAYIVITMGCLDKCPYAPPEKTWDWGLEDPYGKPIEKYREVRDEIKRRVLKLIEDLKAGKSREEIIGRKSLFAI | soluble |
| AHHHHHHGSEIDKGLAKFGDSLINFLYSLALTEFLGKPTGDRVPNASLAIALELTGLSKNLRRVDKHAKGDYAEALIAKAWLMGLISEREAVEIIKKNLYPEVLDFSKKKEAIGRALAPLLVIISERLYSSQV | soluble |
| AHHHHHHGSEIYEGKAKKMIPLDEDKFIMEFKDDATAFDGVKKAKFVGKGWLNAQISAKLFKLLEDHGIKTHFIGVAGGNRLIVERLEMYPIEVVVRNVVAGSLKKRLPLPEGYELPEPIVELYYKSDELHDPMINYYHARILGISEEEIKEMERIALKVNEILKKFFREKGIILVDFKLEFGKNKKGEIVLADEISPDTCRFWDVETKKSLDKDVFRFDKGDLIEAYKELYKRLIGEEPQI | not soluble |
| AHHHHHHGSEKQGEKMKRLGKVLHYAKQGFLIVRTNWVPSLNDRVVDKRLQFVGIVKDVFGPVKMPYVAIKPKVSNPEIYVGEVLYVDERKRKESPKKNKEKRMKKKKRLNR | not soluble |
| AHHHHHHGSGGLALEGRSIVFASGKGGTGKTTTVANIGVALAQFGKEVILIDADITMANLSLILGMEDIPITLHDVLAGEAELKDAIYEGPAGVKVIPGGLSLEKVKKARPERLRELIKEISQMGDFILIDAPAGLELTSVTALLIGKELIIVTNPEISAITDSLKTKLVAEKLGTLPLGAILNRVTSEKTELSKEEIEAILEVPVIGIVPEDPEVKRASAYGVPLVIKNPTSPAAIAYKQIAAKLAGIKWTPPEPESPVKRIFKALFGGKR | soluble |
| AHHHHHHGSIRRVKREIRVIGFDDGTFPHKKRGEKVILVGIVMKGGSDVLGAVSRWITIDGLDVTEAIIDSILSSRFRGDLRVILLKGITYAGFNVVDVNRVFRETGLPLIVVVRKRPDFEAIENALRKHFEDWEKRMELIKAGGKIYELIPGKVYYQAIGIDAETAAKIIRATSRNSLIPEALRIAHIVASAVMRGESSKE | not soluble |
| AHHHHHHGSKTFLTEQQIKVLMLRAKGYKQSEIAKILGTSRANVSILEKRAMEKIEKARNTLLLWEQINSKVIVEIKAGEDIFSIPEKFFKKADKVGVKVPYSTAEIITFLVEHAPVEDRLAKRDFVLFLDSKNKLRIGDCLVIEEIKED | soluble |
| AHHHHHHGSLPKNYDPNEIEPKWQKYWLEEKIYKYKLEPDKPSYAIDTPPPFTSGTLHLGHVLSHTWIDIIARYKRMRGYNVLFPQGFDNHGLPTELKVEKEFGISKDQPEEFLKKCIEWTWQAIEKMRAQFIRIGYSADWDLEYHTMDDWYKAAVQKSLLDFYKKGLIYREEHPVYWCPRCRTSLAKAEVGYVEEEGYLYYIKLPLADGSGYIPIATTRPELMPACVAVFVHPDDERYKHLVGKKVKLPIYEREVPILADEDVDPNFGTGAVYNCTYGDEQDIVWQKRYNLPVIIAINEDGTMNENAGPYAGLKIEEARKKIAEDLEKMGLLYKKEKITHRVLRHTERSSCMAPIELLPKKQWFIKVREFTDDIVEVAKKINWYPEDMFLRLKDWAESMDWDWVISRQRVFGTPIPFWICKNGHIIPAREEDLPVDPRFDKPPVEKCPVCGAEIEPVTDVLDCWVDSSITPLIITKWHEAIKGDEEAKKWFEHNFPTALRPQGTDIIRTWAFYTIFRTYMLTGEKPWNDIVINGMVAGPDGRKMSKSYGNVVSPEEVIPKYGADALRLWTALAPPGEDHPFKWEIVDYNFRFLQKLWNIYRFAERHIKDFDYEKYKHIELEPLDRWILSRLHRIIKFATEELEKYRFNLITRELMTFIWHEVADDYIEMIKHRLYGEDEESKLKAKVALYELLYNIMLLLAPFVPHITEELYHHIFKEKIGEKSVHLLQWPEYREDRIDEEAEKIGELAREIVSAMRKYKNSHGMPLNAKLKHVAIYATDSYEMLKVIEKDIAGTMNIERLEIVKGEPQLEEKVVEIKPIYKRIGPRYGKLVPKIVKHLQENAEEIGRRIKEEGKVEFEVEGQKVVLEKEDIEIKKAVFSEGEEVETAVVRDATILFF | not soluble |
| AHHHHHHGSNAVEIISREISPTLDIQTKILEYMTDFFVKEGFKWLLPVIISPITDPLWPDPAGEGMEPAEVEIYGVKMRLTHSMILHKQLAIAMGLKKIFVLSPNIRLESRQKDDGRHAYEFTQLDFEVERAKMEDIMRLIERLVYGLFRKAEEWTGREFPKTKRFEVFEYSEVLEEFGSDEKASQEMEEPFWIINIPREFYDREVDGFWRNYDLILPYGYGEVASGGEREWEYEKIVAKIRKAGLNEDSFRPYLEIAKAGKLKPSAGAGIGVERLVRFIVGAKHIAEVQPFPRIPGIPAVI | soluble |

— the DeepSol protein solubility set
